# Data reported in article PMC12359043, “Chemical crosslinking extends and complements UV crosslinking in analysis of RNA/DNA nucleic acid–protein interaction sites by mass spectrometry”.
# Biological target: NELF complex WT (NELF-A/B/C-D/E) (human, UniProt Q9H3P2;Q8WX92;Q8IXH7;P18615 1-528;49-628;1-590;1-380)
# Assay: fluorescence anisotropy; NELF-TAR complex: 20 mM HEPES/NaOH pH 7.4, 150 mM NaCl, 10% glycerol, 1 mM DTT, mixed 30 min at 4 C; anisotropy conditions only by reference [29]; Hsh49-Cus1-U2 reconstituted 30 min on ice; Dnmt2 dialysed in 50 mM HEPES pH 7.5, 150 mM NaCl, 2 mM DTT
# Conditions: protein: recombinant; copies: 1;1;1;1; hairpin
# NELF complex WT (NELF-A/B/C-D/E), sequence (Q9H3P2 whole entry, chain 1 of 4): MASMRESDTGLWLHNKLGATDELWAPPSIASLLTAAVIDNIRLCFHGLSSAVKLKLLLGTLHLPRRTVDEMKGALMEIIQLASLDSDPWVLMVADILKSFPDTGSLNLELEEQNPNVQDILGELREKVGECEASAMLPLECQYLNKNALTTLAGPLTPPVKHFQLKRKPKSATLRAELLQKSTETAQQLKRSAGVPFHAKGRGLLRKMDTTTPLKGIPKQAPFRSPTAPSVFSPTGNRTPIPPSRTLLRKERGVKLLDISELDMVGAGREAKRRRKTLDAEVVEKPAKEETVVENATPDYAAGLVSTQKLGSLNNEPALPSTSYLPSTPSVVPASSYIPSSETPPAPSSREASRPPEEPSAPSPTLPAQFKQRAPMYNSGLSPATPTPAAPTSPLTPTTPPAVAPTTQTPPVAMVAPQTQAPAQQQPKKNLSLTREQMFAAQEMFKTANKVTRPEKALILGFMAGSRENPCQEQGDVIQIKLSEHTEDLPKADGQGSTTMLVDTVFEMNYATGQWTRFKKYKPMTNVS
# NELF complex WT (NELF-A/B/C-D/E), sequence (Q8WX92 whole entry, chain 2 of 4): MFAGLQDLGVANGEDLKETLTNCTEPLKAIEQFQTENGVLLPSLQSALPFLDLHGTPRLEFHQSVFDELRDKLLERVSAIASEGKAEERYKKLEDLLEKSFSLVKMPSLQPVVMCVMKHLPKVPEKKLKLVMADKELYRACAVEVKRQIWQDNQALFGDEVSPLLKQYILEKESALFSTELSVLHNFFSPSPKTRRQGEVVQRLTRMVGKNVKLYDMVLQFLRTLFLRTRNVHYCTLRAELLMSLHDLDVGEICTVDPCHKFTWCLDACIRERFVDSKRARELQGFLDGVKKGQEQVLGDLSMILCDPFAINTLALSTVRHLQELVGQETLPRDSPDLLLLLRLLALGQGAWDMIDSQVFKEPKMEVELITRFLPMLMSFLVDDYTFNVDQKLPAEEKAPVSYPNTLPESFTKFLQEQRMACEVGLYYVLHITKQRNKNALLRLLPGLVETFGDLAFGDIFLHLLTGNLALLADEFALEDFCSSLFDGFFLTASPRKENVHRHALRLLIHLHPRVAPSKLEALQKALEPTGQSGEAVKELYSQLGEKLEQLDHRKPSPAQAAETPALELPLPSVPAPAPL
# NELF complex WT (NELF-A/B/C-D/E), sequence (Q8IXH7 whole entry, chain 3 of 4): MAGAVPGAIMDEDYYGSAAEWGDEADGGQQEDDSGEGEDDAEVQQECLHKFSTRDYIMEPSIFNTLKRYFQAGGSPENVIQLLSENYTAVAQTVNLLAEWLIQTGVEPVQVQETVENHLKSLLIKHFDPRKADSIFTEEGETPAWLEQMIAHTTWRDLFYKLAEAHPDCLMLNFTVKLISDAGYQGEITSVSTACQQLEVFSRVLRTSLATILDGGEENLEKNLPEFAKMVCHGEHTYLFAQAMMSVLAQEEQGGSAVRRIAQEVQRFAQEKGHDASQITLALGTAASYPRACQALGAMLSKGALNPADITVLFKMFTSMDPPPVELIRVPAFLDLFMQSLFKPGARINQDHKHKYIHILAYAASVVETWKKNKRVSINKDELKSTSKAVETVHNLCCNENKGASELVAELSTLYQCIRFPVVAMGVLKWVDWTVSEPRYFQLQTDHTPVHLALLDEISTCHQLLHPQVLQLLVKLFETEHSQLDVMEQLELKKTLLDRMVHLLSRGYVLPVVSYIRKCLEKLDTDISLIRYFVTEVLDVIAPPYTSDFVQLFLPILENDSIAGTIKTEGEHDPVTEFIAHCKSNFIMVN
# NELF complex WT (NELF-A/B/C-D/E), sequence (P18615 whole entry, chain 4 of 4): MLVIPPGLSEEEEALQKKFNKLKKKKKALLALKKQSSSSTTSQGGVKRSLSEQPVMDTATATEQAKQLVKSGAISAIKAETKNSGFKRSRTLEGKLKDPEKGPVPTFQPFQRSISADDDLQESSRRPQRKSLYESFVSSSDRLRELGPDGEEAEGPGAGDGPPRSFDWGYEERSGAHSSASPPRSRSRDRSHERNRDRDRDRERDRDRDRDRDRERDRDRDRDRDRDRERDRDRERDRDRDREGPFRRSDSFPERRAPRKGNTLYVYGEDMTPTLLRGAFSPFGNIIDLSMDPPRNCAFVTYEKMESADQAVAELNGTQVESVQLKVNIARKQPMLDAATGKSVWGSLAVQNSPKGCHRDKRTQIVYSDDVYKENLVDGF
binder,measurement,value
CCAGAUCUGAGCCUGGGAGCUCUCUGG (structured_RNA) [HIV-1 TAR stem-loop RNA],binding result,binds
